Like-named read-outs stand apart in the source and are kept apart here. Non-standard residues stand in square brackets, D forms with d. Residues, ends and D or L forms follow the SMILES beside them. *: point of attachment. Dolaproine = CO[C@@H]([C@@H]1CCCN1)[C@@H](C)C(=O)O; Dil = CC[C@H](C)[C@H](NC)[C@@H](CC(=O)O)OC; X1 = C[C@@H](N*)[C@@H](O)c1ccccc1; NMeV = CN[C@H](C(=O)O)C(C)C
Experiments:
CHLA06 cells [1] = assay: Dose response / cell viability in CHLA06 cells; format: cell-based
Description: (§1) Biological activity of the peptides was determined using various assays. To determine proliferative activity, cells were plated at 5×10^3 cells per well in a 96-well microtiter plate. Samples and controls were added and the plates incubated for 24, 48 and 72 hours at 37° C. Viability was determined by adding WST-1 and reading at […] over 1-4 hours. Alternatively, viability was determined using a kit such as the EZViable calcein AM cell viability assay (BioVision) or the Live/Dead Cell imaging kit (ThermoFisher). Induction of cell events such as apoptosis was determined using reagents such as Cell Event Caspase 3/7 reagent (ThermoFisher).

A431 cells = assay: Dose response / cell viability in A431 cells; format: cell-based, human
Description: as §1
(§2) Cells were plated at 5000 cells/well in 100 ul D10 on day 0.100 ul of PDCs were added and titrated 1:1 in D10 (starting concentration=500 nM). WST-1 was added at 72 hours and the plates read over 5 hours at […] in a Promega GloMax.
A pocket biologic (peptide or antibody) having an internalization portion, a linker, and a localization signal was developed to deliver a drug or biological therapeutic into the cell. […] 429-MMAE-1 and 429-NLS-Panobinostat constructs were developed for in vivo studies. G292 cell lines and A431 cell lines were used in the in vivo studies. G292 cells were derived from a primary osteosarcoma of a person. […] A431 cells were established from an epidermoid carcinoma in the skin (epidermis) of a patient. Epidermal growth factor (EGF) stimulation of A431 cells induces rapid tyrosine phosphorylation of intracellular signaling proteins which control cellular processes such as growth, proliferation and apoptosis. […] 429-MMAE affected cell viability in G292 cell lines (FIG. 16A-FIG. 17). 429-MMAE at 50 nm, 125 nm, 250 nm, 500 nm concentrations and OV-MMAE conjugates at 50 nm, 125 nm, 250 nm, 500 nm concentrations were compared to DMSO and MMAE at 50 nm in G292 cells.

microtubules = assay: ViaFluor 647 live cell microtubule stain (FIG. 6); format: cell-based; conditions: ViaFluor 647 stain, 60 minutes at 37° C.
Description: Cells were stained with ViaFluor 647 live cell microtubule stain (Biotium). Cells were treated as in FIG. 3 and stain with ViaFluor for 60 minutes at 37° C.

[2] = test system: cancer cell lines of different lineages; assay: Internalization of OV-8 in cell lines; format: cell-based; conditions: FIG. 2
HCT116 cells = assay: Dose response / cell viability in HCT116 cells; format: cell-based, human; conditions: HCT116 Myc-reporter cells
Description: as §1, §2

CHLA06 cells [3] = assay: Caspase assay (apoptosis) in CHLA06 cells; format: cell-based; conditions: SMARCB1 conjugate and tazemetostat treatments
Description: as §1
429-MMAE was also compared with 429-SM in various cell lines. 429-SM represents 429-Smarc-MMAE and consists of 429-linker-NLS-SMARCB1 mimic to which 1 or 2 MMAE molecules are conjugated through the cysteines. CHLA06 cells were plated at 10,000 cells/well in B27-5 overnight. Samples were added and incubated for 48 hours at 37° C. Caspase 3/7 reagent was added and plates were read after 30 minutes at room temperature. […] Induction of apoptosis is directly correlated with drug concentration (i.e., higher the concentration of drug, the higher the apoptotic effect). […] 429-SM was also effective in A431 and HCT116 cells (FIG. 42C-42D).

Myc transcription = Myc transcription in HCT116 Myc-reporter cells; format: cell-based, human; conditions: for inhibition of Myc transcription: dose series
CHLA06 cells [4] = assay: Confocal microscopy of 429-SMARCB1 in CHLA06 cells; format: cell-based; conditions: confocal fluorescent microscopy
ATRT cell lines = assay: Apoptosis in ATRT cell lines, combination with tazemetostat; format: cell-based
CHLA02 cells = assay: Caspase activity / apoptosis in CHLA02 cells; format: cell-based; conditions: CHL02 cells; SMARCB1 Mimic (F) and tazemetostat treatments
Description: as §1

C[C@]1(O)C[C@@H](c2nc(-c3ccc4ccc(-c5ccccc5)nc4c3)c3c(N)nccn32)C1 [Linsitinib]
effect on CHLA06 cells (dose response) (CHLA06 cells [1]; FIG. 38A): no effects

CC[C@H](C)[C@@H]([C@@H](CC(=O)N1CCC[C@H]1[C@H](OC)[C@@H](C)C(=O)N[C@H](C)[C@@H](O)c1ccccc1)OC)N(C)C(=O)[C@@H](NC(=O)[C@@H](NC)C(C)C)C(C)C [MMAE, monomethyl auristatin E, reference compound] (H-[NMeV]V[Dil][Dolaproine]-X1)
IC50 (A431 cells; A431 cells, MMAE at 1:3 dilutions, FIG. 20A, read-out: IC50 value (four-parameter non-linear regression)): 0.0712 nM
disruption of microtubules (microtubules): disrupt microtubules

Nc1ncnc2c1c(-c1cccc(OCc3ccccc3)c1)cn2C1CC(CN2CCCC2)C1 (centres unmarked) [NVP-ADW742]
effect on CHLA06 cells (dose response) (CHLA06 cells [1]; FIG. 38A): no effects

COc1cc([C@@H]2c3cc4c(cc3[C@H](O)[C@H]3COC(=O)[C@@H]23)OCO4)cc(OC)c1OC [PPP, Picropodophyllin]
effect on CHLA06 cells (dose response) (CHLA06 cells [1]; FIG. 38A): active
effectiveness compared to 429-MMAE in terms of IC50 (CHLA06 cells [1]; FIG. 38A): less effective

Cc1[nH]c2ccccc2c1CCNCc1ccc(/C=C/C(=O)NO)cc1 [Panobinostat, reference compound]
IC50 (A431 cells; Homo sapiens, A-431, A431 cells, FIG. 20B, FIG. 24A, read-out: IC50 value): 108 nM
IC50 (A431 cells; Homo sapiens, A-431, printed as A431 treated with Panobinostat, in the sentence on CHLA06 cells, FIG. 24B, read-out: IC50): > 500 nM

FSFGNSSLRKLPGVVRRRRCARGVWR [Skwx-OV-8]
internalization into cancer cell lines [2]: internalize

B1: 429-SMARCB1: 429 construct delivering SmarcB1-myc binding sequence to nucleus (peptide)
chain: DFYGCLLDLSLGVPSLGWRRRCITAWLPSSIPKKKRKVDGQKLRDAFTWNMNEKLMTPEMFSEILCDDLD
modifications: 429 conjugate
HCT116 cell viability compared to a control (HCT116 cells): affects HCT116 cell viability
cell viability (CHLA06 cells [1]; 429-SMARCB1 and tazemetostat treatments): reduced cell viability
caspase activity (CHLA06 cells [3]): increased caspase activity
Myc transcription compared to the control (Myc transcription; 5 nM): significantly affects Myc transcription
Myc transcription compared to the control (Myc transcription; 50 nM): significantly affects Myc transcription
inhibition of Myc transcription (Myc transcription): inhibits Myc transcription
internalization (CHLA06 cells [4]; CHLA06 cells): internalized
co-localization with histones (CHLA06 cells [4]): co-localizes with histones
apoptotic effect in combination with tazemetostat (ATRT cell lines): synergistic apoptotic effect

B2: DFYGCLLDLSLGVPSLGWRRRCITAWLPSSIPKKKRKVDGQKLRDAFTWNMNEKLMTPEMFSEILCDDLD (peptide)
chain: DFYGCLLDLSLGVPSLGWRRRCITAWLPSSIPKKKRKVDGQKLRDAFTWNMNEKLMTPEMFSEILCDDLD
modifications: not fully specified
HCT116 cell viability compared to a control (HCT116 cells): inhibited
CHLA06 cell viability compared to 429 control (CHLA06 cells [1]; 50 ug): significantly affected CHLA06 cell viability
caspase activity (CHLA06 cells [3]): significantly increased caspase activity
inhibition of Myc transcription (Myc transcription): inhibited
caspase activity (CHLA02 cells): significantly increased caspase activity

From patent US20250082769A1, “CELLULAR UPTAKE PEPTIDE-THERAPEUTIC PAYLOAD COMPOSITIONS AND METHODS OF USE” (Nighthawk Biosciences, Inc., priority 2022, published 2025)
